The target in assay [1] is T1, rHuman CD44/Fc Chimera, CF (R&D Systems Cat#3660-CD) (human, UniProt P16070 21-220).
T1 construct: Bought recombinant protein; Fc part of the bought chimera not given
Nature of the assay: MSD multispot ECL, antigen spotted on plate, Fab in solution; blank spot of this row 440.

Assay [2] has as its target T2, rHuman IGF-1 sR (insulin-like growth factor-1 soluble receptor), CF (R&D Systems Cat#391-GR) (human, UniProt P08069 31-932).
T2 construct: Bought recombinant soluble receptor; The column head prints only 'IGF-1'
The assay is described as above.

The target of assay [3] is T3, rHuman P-Cadherin/Fc Chimera, CF (R&D Systems Cat#861-PC) (human, UniProt P22223 108-654).
T3 construct: Bought recombinant protein; Fc part of the bought chimera not given
Described as above.

Assay [4] addresses T4, rHuman Erythropoietin R/Fc Chimera, CF (R&D Systems Cat#963-ER) (human, UniProt P19235 25-250).
T4 construct: Bought recombinant protein; also called EPO R; Epo R/Fc; Fc part of the bought chimera not given
T4 sequence (looked up): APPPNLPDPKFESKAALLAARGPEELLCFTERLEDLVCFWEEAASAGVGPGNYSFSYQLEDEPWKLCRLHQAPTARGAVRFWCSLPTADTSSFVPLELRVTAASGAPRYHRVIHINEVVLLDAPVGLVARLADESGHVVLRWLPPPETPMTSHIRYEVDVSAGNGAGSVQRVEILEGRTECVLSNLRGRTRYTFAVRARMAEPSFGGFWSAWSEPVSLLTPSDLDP
Described as above.

For assay [5], the target named is T5, Recombinant Human DLL4 (R&D Systems Cat#1506-D4/CF) (human, UniProt Q9NR61 27-524).
T5 construct: Bought recombinant protein; also called delta-like protein 4; rHuman DLL4
Described as above.

Assay [6] deals with T6, rHuman ErbB2/Fc Chimera, CF (R&D Systems Cat#1129-ER) (human, UniProt P04626 23-652).
T6 construct: Bought recombinant protein; Fc part of the bought chimera not given
The assay is described as above.

Assay [7] deals with T7, rHuman EGF R/Fc Chimera, CF (R&D Systems Cat#344-ER) (human, UniProt P00533 25-645).
T7 construct: Bought recombinant protein; Fc part of the bought chimera not given
Described as above.

The target of assay [8] is T8, rHuman HGF R/c-MET/Fc Chimera, CF (R&D Systems Cat#358-MT/CF) (human, UniProt P08581 25-932).
T8 construct: Bought recombinant protein; also called HGF R/Fc; Fc part of the bought chimera not given
The description is as above.

The target of assay [9] is T9, rHuman Notch-1/Fc Chimera, CF (R&D Systems Cat#3647-TK) (human, UniProt P46531 19-526).
T9 construct: Bought recombinant protein; Fc part of the bought chimera not given
The description is as above.

The target of assay [10] is T1, rHuman CD44/Fc Chimera, CF (R&D Systems …). Nature of the assay: MSD multispot ECL, antigen spotted on plate, Fab in solution; blank spot of this row 298.
Assay [11] addresses T2, rHuman IGF-1 sR (insulin-like growth …). Described as above.
Assay [12] concerns the target T3, rHuman P-Cadherin/Fc Chimera, CF (R&D …). The assay is described as above.
Assay [13] has as its target T4, rHuman Erythropoietin R/Fc Chimera, CF …. The description is as above.
Assay [14] deals with T5, Recombinant Human DLL4 (R&D Systems …). The assay is described as above.
The target in assay [15] is T6, rHuman ErbB2/Fc Chimera, CF (R&D …). The description is as above.
The target in assay [16] is T7, rHuman EGF R/Fc Chimera, CF (R&D …). The description is as above.
Assay [17] has as its target T8, rHuman HGF R/c-MET/Fc Chimera, CF (R&D …). The description is as above.
Assay [18] deals with T9, rHuman Notch-1/Fc Chimera, CF (R&D …). The description is as above.

Where a chain is given by its changes, count along the chain named. In names and notes the source's numbering stands.

T8 sequence (P08581 25-932, change not shown): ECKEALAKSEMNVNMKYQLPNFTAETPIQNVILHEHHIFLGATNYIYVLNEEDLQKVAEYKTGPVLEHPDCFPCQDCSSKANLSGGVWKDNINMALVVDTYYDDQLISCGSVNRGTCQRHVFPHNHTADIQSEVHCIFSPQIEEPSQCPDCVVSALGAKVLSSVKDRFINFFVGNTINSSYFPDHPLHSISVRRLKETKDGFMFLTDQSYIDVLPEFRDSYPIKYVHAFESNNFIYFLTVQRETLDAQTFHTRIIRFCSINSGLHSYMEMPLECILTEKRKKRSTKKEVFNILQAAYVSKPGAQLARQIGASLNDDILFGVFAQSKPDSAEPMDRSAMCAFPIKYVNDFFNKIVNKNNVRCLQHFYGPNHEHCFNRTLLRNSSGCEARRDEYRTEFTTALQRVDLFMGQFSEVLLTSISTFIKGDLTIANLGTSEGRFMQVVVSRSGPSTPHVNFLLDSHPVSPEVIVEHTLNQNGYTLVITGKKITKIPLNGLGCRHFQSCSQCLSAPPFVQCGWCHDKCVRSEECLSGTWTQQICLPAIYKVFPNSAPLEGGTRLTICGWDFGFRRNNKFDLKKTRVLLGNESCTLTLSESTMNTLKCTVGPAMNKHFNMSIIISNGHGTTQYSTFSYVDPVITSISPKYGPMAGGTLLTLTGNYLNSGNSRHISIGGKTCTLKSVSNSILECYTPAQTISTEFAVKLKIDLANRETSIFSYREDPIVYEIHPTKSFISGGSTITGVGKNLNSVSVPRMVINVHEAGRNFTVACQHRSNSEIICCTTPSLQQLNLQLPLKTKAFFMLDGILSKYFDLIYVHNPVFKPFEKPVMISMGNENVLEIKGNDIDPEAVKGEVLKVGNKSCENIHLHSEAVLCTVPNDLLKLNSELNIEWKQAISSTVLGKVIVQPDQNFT

B1: Fab VH1-46_IGHD6-6*01_IGHJ1*01 S102A/S103P/S104F/H111F (H:APFF) & L6_IGKJ1*01 S76N (Fab, V domains shown)
VH: QVQLVQSGAEVKKPGASVKVSCKASGYTFTSYYMHWVRQAPGQGLEWMGIINPSGGSTSYAQKFQGRVTMTRDTSTSTVYMELSSLRSEDTAVYYCAREEYAPFSAEYFQFWGQGTLVTVSS
VL: EIVLTQSPATLSLSPGERATLSCRASQSVSSYLAWYQQKPGQAPRLLIYDASNRATGIPARFSGSGSGTDFTLTINSLEPEDFAVYYCQQRSNWPPWTFGQGTKVEIKR
notes: Fab expressed in E. coli from plasmid A (heavy chain CH1, His6 and Flag tags) and plasmid C (kappa CL)
B1: the ECL signal was 369 in assay [1]; 378 in assay [2]; 329 in [3]; 384 in assay [4]; 52000 in assay [5]; 436 in [6]. The ECL signal in [7] was 385; in assay [8], 429; in assay [9] it was 298.

B2: Fab VH1-46_IGHD6-6*01_IGHJ1*01 S102A/S103P/S104F/H111F (H:APFF) & L6_IGKJ1*01 S76P (Fab, V domains shown)
VH: B1 VH
VL: B1 VL with N76P
notes: as for B1
For B2, the ECL signal in assay [10] was 313; in [11], 347; in assay [12] it was 271; in assay [13], 371; in assay [14] it was 29800; in [15] it was 260. Moreover, the results for the ECL signal in assay [16], in assay [17] and in assay [18] were 331, 394 and 402, respectively.

Values taken from patent US20120316071A1 (published 2012).
